system: K562 CRISPRi cells; assay: Constant region variant library pooled growth screen, K562; type: cell-based, human; conditions: sgRNA constant region variants; activity relative to the original, un-modified constant region cr995
Summary of the method: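 Library of sgRNA constant-region variants, each paired with 36 targeting sequences (essential-gene and non-targeting), transduced in duplicate into K562 CRISPRi cells, puromycin-selected and grown 4–8 days at >2000× coverage. Activity per variant is its growth phenotype normalised to the same targeting sequence with unmodified constant region.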

Row | Molecule | Mean relative activity
1 | cr383 (nucleic acid, listed as DNA, chemistry not fully specified) guide: GTTTAAGAGCTAAGCTGGAAACAGCATAGCAACTTTAAATAAGGCTAGTCCGTTATCAACTTGAAAAAGTGGCACCTAGTAGGTGCT | −0.005505
2 | cr329 (nucleic acid, listed as DNA, chemistry not fully specified) guide: GTTTAAGAGCTAAGCTGGAAACAGCATAGCAACTTTAAATAAAGCTAGTCTGTTATCAACTTGAAAAAGTGGCACCGAGTCGGTGCT | −0.007607
3 | cr882 (nucleic acid, listed as DNA, chemistry not fully specified) guide: GTTTAAGAGCTAAGCTGGAAACAGCATAGCAAGTTTAAATAAGGCTAGTCCGTTATCAACTTCAAAAAGTGGCACCGAGTCGGTGCT | 1.027
4 | cr942 (nucleic acid, listed as DNA, chemistry not fully specified) guide: GTTTAAGAGCTAAGCTGGAAACAGCATAGCAAGTTTAAATAAGGCTAGTCCGTTACCAACTTGAACAAGTGGCACCGAGTCGGTGCT | 1.087
5 | cr784 (nucleic acid, listed as DNA, chemistry not fully specified) guide: GTTTAAGAGCTAAGCTGGAAACAGCATAGCAAGTTTAAATAATCCTAGTTCGTTATCAACTTGAAAAAGTGGCACCGAGTCGGTGCT | −0.01213
6 | cr583 (nucleic acid, listed as DNA, chemistry not fully specified) guide: GTTTAAGAGCTAAGCTGGAAACAGCATAGCAAGTTTAAATCAGGCTAGTCCATTATCTACTTGAAAAAGTGGCACCGAGTCGGTGCT | −0.01013
7 | cr034 (nucleic acid, listed as DNA, chemistry not fully specified) guide: GCATAAGAGCTAAGCTGGAAACAGCATAGCAAGTTTAAATAAGGCTAGTCCGTTATCAACTTGAAAAAGTGGCACCGAGTCGGTGCT | −0.007191
8 | cr661 (nucleic acid, listed as DNA, chemistry not fully specified) guide: GTTTAAGAGCTAAGCTGGAAACAGCATAACAAGTTTAAATAAGGCTAGTCCCTTATCAACTTGAATAAGTGGCACCGAGTCGGTGCT | −0.01151
9 | cr515 (nucleic acid, listed as DNA, chemistry not fully specified) guide: GTTTAAGAGCTAAGCTGTAAACAGCATAGCAAGTTTAAATAAGGCTAGTCCGTTATCAACTTGAAAAAGTGGCACCGAGTCGGTGCT | 1.027
10 | cr056 (nucleic acid, listed as DNA, chemistry not fully specified) guide: GTGTCAGAGCTAAGCTGGAAACAGCATAGCAAGTTTAAATAAGGCTAGTCCGTTATCAACTTGAAAAAGTGGCACCGAGTCGGTGCT | −0.009512
11 | cr135 (nucleic acid, listed as DNA, chemistry not fully specified) guide: GTTTAAGAGCTAAGCTGGAAACAGCATAGCAAGTTTAAATAACGCTAGTCGGTTATCAAATTGAAAAATTGGCGCCGAGTCGGCGCT | −0.00878
12 | cr036 (nucleic acid, listed as DNA, chemistry not fully specified) guide: GCTAAAGAGCTAAGCTGGAAACAGCATAGCAAGTTTAAATAAGGCTAGTCCGTTATCAACTTGAAAAAGTGGCACCGAGTCGGTGCT | −0.005679

From patent publication US20220259593A1, “CONTROL OF MAMMALIAN GENE DOSAGE USING CRISPR” (The Regents of the University of California, priority 2019, published 2022)
